What was measured:
Assay in all cases: product formation, HPLC-DAD of ethyl acetate extract; Hanes plot
Assay type in all cases: biochemical, Pyrus communis
[1] = substrate: CC(C)(COP(=O)(O)OP(=O)(O)OC[C@H]1O[C@@H](n2cnc3c(N)ncnc32)[C@H](O)[C@@H]1OP(=O)(O)O)[C@@H](O)C(=O)NCCC(=O)NCCSC(=O)c1ccccc1O; details: malonyl-CoA at saturation, 0.1 M potassium phosphate pH 7.0, 35°C, 5 min
From the text: (§1) product formation, HPLC-DAD of ethyl acetate extract; Hanes plot on PcBIS1

[2] = substrate: CC(C)(COP(=O)(O)OP(=O)(O)OC[C@H]1O[C@@H](n2cnc3c(N)ncnc32)[C@H](O)[C@@H]1OP(=O)(O)O)[C@@H](O)C(=O)NCCC(=O)NCCSC(=O)CC(=O)O; details: benzoyl-CoA as starter at saturation, 0.1 M potassium phosphate pH 7.0, 35°C, 5 min
From the text: as §1

[3] = substrate: CC(C)(COP(=O)(O)OP(=O)(O)OC[C@H]1O[C@@H](n2cnc3c(N)ncnc32)[C@H](O)[C@@H]1OP(=O)(O)O)[C@@H](O)C(=O)NCCC(=O)NCCSC(=O)c1ccccc1; details: malonyl-CoA at saturation, 0.1 M potassium phosphate pH 7.0, 35°C, 5 min
From the text: as §1

[4] = substrate: CC(C)(COP(=O)(O)OP(=O)(O)OC[C@H]1O[C@@H](n2cnc3c(N)ncnc32)[C@H](O)[C@@H]1OP(=O)(O)O)[C@@H](O)C(=O)NCCC(=O)NCCSC(=O)c1ccccc1O; details: malonyl-CoA at saturation, 0.1 M potassium phosphate pH 7.0, 35°C, 5 min; remark: listed apart in the source
From the text: (§2) product formation, HPLC-DAD of ethyl acetate extract; Hanes plot on PcBIS2

[5] = substrate: CC(C)(COP(=O)(O)OP(=O)(O)OC[C@H]1O[C@@H](n2cnc3c(N)ncnc32)[C@H](O)[C@@H]1OP(=O)(O)O)[C@@H](O)C(=O)NCCC(=O)NCCSC(=O)CC(=O)O; details: benzoyl-CoA as starter at saturation, 0.1 M potassium phosphate pH 7.0, 35°C, 5 min; remark: listed apart in the source
From the text: as §2

[6] = substrate: CC(C)(COP(=O)(O)OP(=O)(O)OC[C@H]1O[C@@H](n2cnc3c(N)ncnc32)[C@H](O)[C@@H]1OP(=O)(O)O)[C@@H](O)C(=O)NCCC(=O)NCCSC(=O)c1ccccc1; details: malonyl-CoA at saturation, 0.1 M potassium phosphate pH 7.0, 35°C, 5 min; remark: listed apart in the source
From the text: as §2

Row | Protein | Km [1] [µM] | kcat [1] [s⁻¹] | kcat/Km [1] [M⁻¹ s⁻¹] | Km [2] [µM] | Km [3] [µM] | kcat [3] [s⁻¹] | kcat/Km [3] [M⁻¹ s⁻¹] | Km [4] [µM] | kcat [4] [s⁻¹] | kcat/Km [4] [M⁻¹ s⁻¹] | Km [5] [µM] | Km [6] [µM] | kcat [6] [s⁻¹] | kcat/Km [6] [M⁻¹ s⁻¹]
1 | PcBIS1 (Pyrus communis) (protein) MAPLVKNHVEPPHAKILAIGTANPPNVYYQKDYPDFLFRVTKNEHRTDLREKFDRICEKSRTRKRYLYLTEEILNANPSIYTYGAPSLDVRQDMLNPEVPKLGQQAALKAIKEWGQPISKITHLIFCTASCVDMPGADFQLVKLLGLNPSVTRTMIYEAGCYAGATVLRLAKDFAENNEDARVLVVCAEITTVFFHGLTDTHLDILVGQALFADGASAVIVGANPEPEIERPLFEIVACRQTIIPNSEHGVVANIREMGFNYYLSGDVPKFVGGSVVDFLTKTFEKVDGKNKDWNSLFLSVHPGGPAIVDQVEEQLGLKEGKLRATRHVLSEYGNMGAPSVHFILDEMRNKSIGEGKATTGEGLEWGVVIGIGPGLTVETAVLRSESIPC | 78.4 ± 4.8 | 0.77 ± 0.075 | 9820 | 13.7 ± 2.9 | 1.1 ± 0.2 | 0.055 ± 0.005 | 50000 | – | – | – | – | – | – | –
2 | PcBIS2 (Pyrus communis) (protein) MAPLVKNHVEPPHAKILAIGTANPPNVYYQKDYPDFLFRVTKNEHRTDLREKFDRICEKSRTRKRYLYLTEEILNANPSIYTYGAPSLDVRQDMLNPEVPKLGQQAALKAIKEWGQPISKITHLIFCTASCVDMPGADFQLVKLLGLNPSVTRTMIYEAGCYAGATVLRLAKDFAENNEDARVLVVCAEITTVFFHGLTDTHLDILVGQALFADGASAVIVGANPEPEIESPLFEIVACRQTIIPNSEHGVVANIREMGFNYYLSGEVPKFVGGNVVDFLTKTFEKVDGKNKDWNSLFFSVHPGGPAIVDQVEEQLGLKEGKLRATRHVLSEYGNMGAPSVHFILDEMRKKSIEEGKATTGEGLEWGVVIGIGPGLTVETAVLRSESIPC | – | – | – | – | – | – | – | 95.2 ± 5.4 | 0.89 ± 0.09 | 9350 | 11.6 ± 2.2 | 0.9 ± 0.1 | 0.035 ± 0.00167 | 38900
